Source: IntAct's records for PubMed 29039417

B1: BBSome complex member BBS1 (Homo sapiens), Q8NFJ9 (parent)
chain: MAAASSSDSDACGAESNEANSKWLDAHYDPMANIHTFSACLALADLHGDGEYKLVVGDLGPGGQQPRLKVLKGPLVMTESPLPALPAAAATFLMEQHEPRTPALALASGPCVYVYKNLRPYFKFSLPQLPPNPLEQDLWNQAKEDRIDPLTLKEMLESIRETAEEPLSIQSLRFLQLELSEMEAFVNQHKSNSIKRQTVITTMTTLKKNLADEDAVSCLVLGTENKELLVLDPEAFTILAKMSLPSVPVFLEVSGQFDVEFRLAAACRNGNIYILRRDSKHPKYCIELSAQPVGLIRVHKVLVVGSTQDSLHGFTHKGKKLWTVQMPAAILTMNLLEQHSRGLQAVMAGLANGEVRIYRDKALLNVIHTPDAVTSLCFGRYGREDNTLIMTTRGGGLIIKILKRTAVFVEGGSEVGPPPAQAMKLNVPRKTRLYVDQTLREREAGTAMHRAFQTDLYLLRLRAARAYLQALESSLSPLSTTAREPLKLHAVVQGLGPTFKLTLHLQNTSTTRPVLGLLVCFLYNEALYSLPRAFFKVPLLVPGLNYPLETFVESLSNKGISDIIKVLVLREGQSAPLLSAHVNMPGSEGLAAA
partner: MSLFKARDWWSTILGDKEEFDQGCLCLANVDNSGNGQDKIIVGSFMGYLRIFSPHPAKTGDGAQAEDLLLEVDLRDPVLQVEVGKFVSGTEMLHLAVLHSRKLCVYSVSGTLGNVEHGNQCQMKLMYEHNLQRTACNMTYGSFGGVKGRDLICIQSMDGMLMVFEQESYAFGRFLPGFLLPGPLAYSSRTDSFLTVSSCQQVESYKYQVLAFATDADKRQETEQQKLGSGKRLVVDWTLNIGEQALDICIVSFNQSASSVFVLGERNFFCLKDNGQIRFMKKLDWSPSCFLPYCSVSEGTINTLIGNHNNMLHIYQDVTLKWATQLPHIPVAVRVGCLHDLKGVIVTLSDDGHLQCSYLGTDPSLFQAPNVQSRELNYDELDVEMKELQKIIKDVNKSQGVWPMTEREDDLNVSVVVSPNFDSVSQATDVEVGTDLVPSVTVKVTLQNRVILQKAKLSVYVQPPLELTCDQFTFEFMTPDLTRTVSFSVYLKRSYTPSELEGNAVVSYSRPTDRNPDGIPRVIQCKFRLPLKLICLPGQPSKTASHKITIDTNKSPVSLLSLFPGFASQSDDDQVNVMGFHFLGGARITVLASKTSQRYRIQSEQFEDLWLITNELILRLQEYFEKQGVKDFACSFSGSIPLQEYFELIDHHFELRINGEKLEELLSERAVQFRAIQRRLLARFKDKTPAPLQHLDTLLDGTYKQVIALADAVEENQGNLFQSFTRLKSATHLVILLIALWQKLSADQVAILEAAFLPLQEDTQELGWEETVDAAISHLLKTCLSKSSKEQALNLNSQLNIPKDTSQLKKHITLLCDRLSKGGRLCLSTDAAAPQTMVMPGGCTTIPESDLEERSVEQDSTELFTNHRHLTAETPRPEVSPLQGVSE

Variants of: B1
Details: with pthb1_human BBS9, Q3SYG4

Variant | effect of a mutation on the interaction
H489K | with no effect
H489A | with no effect
T438A | with no effect
A447K | with no effect
T431K | with no effect
T431E | with no effect
P576A | with no effect
S554E | disrupting interaction strength
D455A | with no effect
F535A | with no effect
L569E | disrupting interaction strength
L569A | with no effect
E484K | with no effect
E484A | with no effect
L522E | with no effect
L459A | with no effect
L459E | with no effect
A575K | with no effect
L475A | with no effect
L475K | with no effect
K500E | with no effect
L471F | disrupting interaction strength
R429A | with no effect
R429E | with no effect
S574A | with no effect
G572K | with no effect

Variant | effect of a mutation on the interaction
S479K | with no effect
N557E | with no effect
V491E | with no effect
V491A | with no effect
S579A | with no effect
S579E | with no effect
N426A | with no effect
S556A | with no effect
S556K | with no effect
A422K | with no effect
Q493E | with no effect
N583A | with no effect
Q573K | with no effect
Q573E | with no effect
Y434K | with no effect
R442E | with no effect
G589E | with no effect
G589A | with no effect
L425E | with no effect
L433K | with no effect
L433E | with no effect
G494A | with no effect
G494K | with no effect
G445A | with no effect
G445K | with no effect
T508E | with no effect

Variant | effect of a mutation on the interaction
K565E | with no effect
G516E | with no effect
G516A | disrupting interaction strength
V552A | with no effect
V552K | disrupting interaction strength
L501K | disrupting interaction strength
V435E | with no effect
A533K | with no effect
D562K | with no effect
L439E | with no effect
G543E | with no effect
K558A | with no effect
A593K | with no effect
L458A | with no effect
K424A | with no effect
E472K | with no effect
F452E | with no effect
A591K | with no effect
I564A | disrupting interaction strength
S473E | with no effect
T446E | with no effect
L478K | with no effect
L461E | with no effect
V427E | with no effect
V427K | with no effect
V427A | with no effect

Variant | effect of a mutation on the interaction
I560A | with no effect
F521E | disrupting interaction strength
S529E | with no effect
N545E | with no effect
P485A | with no effect
P485E | with no effect
P485K | with no effect
A592K | with no effect
A592E | with no effect
P538L | disrupting interaction strength
P538E | with no effect
Y528K | disrupting interaction strength
Y528C | disrupting interaction strength
Y528A | disrupting interaction strength
L495K | with no effect
A463K | disrupting interaction strength
L518E | with no effect
L518A | with no effect
G496K | with no effect
G496E | with no effect
F551K | with no effect
L515K | with no effect
L456K | with no effect
Y457E | with no effect
S587A | with no effect
S587K | with no effect

Variant | effect of a mutation on the interaction
P585K | with no effect
P585E | with no effect
M584K | with no effect
M584E | with no effect
T502A | with no effect
T502E | with no effect
L503A | with no effect
R460E | with no effect
R460A | with no effect
S476K | with no effect
E549K | with no effect
R483E | with no effect
L578E | with no effect
M448A | with no effect
M448E | with no effect
Q469A | with no effect
H449E | with no effect
H449A | with no effect
P531E | with no effect
S413E | with no effect
G586E | with no effect
F499K | with no effect
L488A | with no effect
L488E | with no effect
L486E | disrupting interaction strength
L486A | with no effect

Variant | effect of a mutation on the interaction
A466E | with no effect
P477K | with no effect
A420E | with no effect
L505P | disrupting interaction strength
L505A | with no effect
L505E | disrupting interaction strength
A451K | with no effect
A490K | with no effect
A490E | with no effect
H581E | with no effect
S561A | with no effect
S561K | with no effect
P542K | disrupting interaction strength
P542A | with no effect
L517K | disrupting interaction strength
L517A | with no effect
Q421A | with no effect
S474E | with no effect
L577E | with no effect
Q453K | with no effect
L555A | with no effect
L555E | with no effect
L555K | with no effect
A526K | with no effect
L539A | disrupting interaction strength
G416A | with no effect

Variant | effect of a mutation on the interaction
G416E | with no effect
R512E | with no effect
L530A | disrupting interaction strength
L530V | disrupting interaction strength
A580E | with no effect
L567A | with no effect
L567K | with no effect
R570E | with no effect
P428E | with no effect
T510A | with no effect
E588K | with no effect
L544K | with no effect
V541A | with no effect
V541K | with no effect
R432L | disrupting interaction strength
R432A | with no effect
R432E | with no effect
R432K | with no effect
T511A | with no effect
R465E | with no effect

Variants of: B1
Details: with pthb1_human BBS9, Q3SYG4
Remark: another data set of the same source

Variant | effect of a mutation on the interaction
I564A | with no effect
